These are literature values, as cited in PMC10935306.

For this series, the target named is Ship2 Sam (Homo sapiens) (UniProt O15357).
Sequence of UniProt O15357 (O15357 1193-1258): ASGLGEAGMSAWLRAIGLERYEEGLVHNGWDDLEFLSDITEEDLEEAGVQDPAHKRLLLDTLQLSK

On to EphA2 Sam (from UniProt P29317), for which the Kd was 750 nM.

Usually Kd stands for the equilibrium constant for the complex coming apart.
